Assay: soluble on expression in E. coli; label from the status in PepcDB or PDB records

Soluble on expression in E. coli, not soluble:
MGSDKIHHHHHHAITVEENPNMMYMLVGSYATPEEEGIKVYNFDEQNGNSQYISGIKGISNPSFLIPSADGERIYAVGEDSGKSSTANAIKFDKEQKKLTLLNSQPTDGGAPCYITLSPSEKFVLTANYIGGSITVFPLDKDGKLKSETRLISFTGNSLDKERQTQPHLHCIEFTPDHKYLLASDLGTDQIHVFPVSENVTDGVSHSLLNESEEFNIKVESGSGPRHICFHPNQKFAYLINEISGKVIAFSYDKGKLNAIQYIEADTVGAKGSGDIHISPDGKFLYASNRLKADGIAIFSINQEEGTLTKTGYQLTGIHPRNFIISRNGRYLLVACRDSNSIQVFERDSQTGLLKDTGKTIKTNKPVCLKFTF, MGSDKIHHHHHHALGGCGLVPKQPITQQPMTALPPMPPQAQSPGSIFNPGYAGRPLFEDQRPRNVGDILTIVIQENVNATKSSGANANRSGNTNFNVPTAGFLGGLFGKTNLSATGANVFSGTGGANASNTFNGTITVTVTGVLPNGNLMVSGEKQMLINQGDEFVRFSGVVNPNTISNLNAVYSTQVADAKIEYSAKGYLNEAENMGWLQRFFLNVSPW, MGSDKIHHHHHHALGVVDEVHAGKEIGLQIYSLSQELYKGDVAANLRKVKDMGYSKLELAGYGKGAIGGVPMMDFKKMAEDAGLKIISSHVNPVDTSISDPFKAMIFKYSKEVTPKIMEYWKATAADHAKLGCKYLIQPMMPTITTHDEAKLVCDIFNQASDVIKAEGIATGFGYHNHNMEFNRVATKEQQEKVKGNPFAAFMKVGDQIYDLMLKDTDPSKVYFEMDVYWTVMGQNDPVEYMQKHPDRIKVLHIKDRAVFGQSGMMNFEMIFKQMYANGIKDYFVELEQMPDGRTQFAGVKDCADYLIKAPFVK, MGSDKIHHHHHHAPPTFPEVKKIHAHRLSDELLISYPLDMAVSEDYIFILALADNAWLQVYDKTTGQLLGSFVTRGQGPGEATTANMCYYNAREKKISVYDESSMKLLTYRFDKDADNWGALIEERSFYDLGGTVRRVWELRNGRFLVDGQLGTKSDQQKRFQMLADAKVVADYNDFPIDTPKERSVWSSPAIAISPDCKKMAVGTLYGGILELFDLSQNIELRAIRKFYPPVVQYLSGTIQNTEETVWGFSALCVTDERIYSVFIGDKNPNLFNNLSVFDWDGRELIKYNTDCLVLRICASTQEPNKLYGIAFSETHEFYLVSFSLGS, MGSDKIHHHHHHAQLVERVCRTDYKISPERKGELLLELDNISFFKDNEFAGTVIKGYSLPGLWIQPKFVYYPLKNIKLEGGVHMLWFSGAYRYPSVSYQDIALWKGEQYQKGAHLLPFFRAQISMKSVDLILGNIYGGSNHGLIAPLYNPELNLTADPETGFQVLAGAPWIDLDAWIDWQSFIFRDDTHQEAFTVGLSTRFKLNAPSSTFHCYIPLQILAQHRGGEIDTIRESSVQTLMNGAVGAGVTWNIDRRILKRVNVELDAAGYYQQKGELWPYHKGIGVYSSAFVDLGNFRVKMGHWICNDFITMFGIPYFGTVSTKKEGITYDKPQTLFCSIEYSRMFGKHYALGLKADAYQFFPGTMRSANGELTSPGSTTSFSVGVYFRINPSFLLKKF, MGSDKIHHHHHHAQSLKDLLNKDNISKVVNAITGTPETIDMTGTWTYSGSAVEFESDNLLMKAGGAAAATMAENKLNEQLSKVGIKEGQMSFTFNADSTFTSTVGKKKLSGTYSYNASTKQVDLKYLKLLNLHAKVNCTSNSMDLLFNSDKLLKLMTFLGSKTNSTALKTVSSLAENYDGMMLGFGLKK, MGSDKIHHHHHHARRNSTSRGSDSAARSPPSIRASHLKHCCFPIKEPTMSTINYSEKIPNNVNLADDRTLQRALEQWQPNFLSWWGDMGPDGSHGYDVYLRTAVSVDAGGWAHFDHVKMPDYRWGIFLTPGEQDRKIQFGEHKGEAAWQDVPGEHRANLRRIIVTQGDTEPASVEQQRHLGLTAPSMYDLRNLFQVNVEEGRHLWAMVYLLHRYFGRDGREEAEALLGRRSGDDDNPRILGAFNEKTPDWLAFYMFTYFTDRDGKFQLSALAESGFDPLARTTKFMLTEEAHHMFVGESGVSRVVQRTAQVMNELKTDDVNQIRAAGVIDLPTIQRYLNFHYSVTIDLFGADHSSNAATFYSSGLKGRYEETKRDDDHQLGGQSYKLLDVQDGKLVEREVPMLNAMNEVLRDDYIKDSVAGVNRWNKVLEKAGIEFRLTVPHKAFNRQIGTFAGTRVAPDGRVVSETEWAANEAKWLATPEDRAYVASLMGRVVEPGKFANWIAPPAMGINRQPIDFEYVRFN

Reference: the DeepSol protein solubility set
